What was measured:
[1] = target: LKB1 (endogenous, in skeletal muscle and 3T3L1 adipocyte extracts) (UniProt Q9WTK7)
[2] = system: His-LKB1 fusion protein (purified)
[3] = system: 141 overlapping peptides (12-15 residues in length) corresponding to the LKB1 sequence

Fyn expressed from pcDNA3.1-Fyn-V5
tyrosine phosphorylation of LKB1 immunoprecipitates from 3T3L1 adipocytes (PY100 immunoblot) [1]: Immunoblotting of LKB1 immunoprecipitates with the PY100 phosphotyrosine antibody demonstrated Fyn-induced tyrosine phosphorylation of LKB1

Fyn-CA, constitutively active Fyn mutant (pcDNA3.1-Fyn-CA(Y527F)-V5)
tyrosine phosphorylation of endogenous LKB1 immunoprecipitated from transfected tibialis anterior muscle (PY100 immunoblot) [1]: In the absence of Fyn-CA, there was a relatively low level of LKB1 tyrosine phosphorylation that was significantly increased by the expression of Fyn-CA

recombinant His-FynT kinase (Calbiochem)
tyrosine phosphorylation in an in vitro kinase reaction (PY100 phosphotyrosine immunoblot) [2]: purified His-LKB1-tagged fusion protein was tyrosine phosphorylated by purified recombinant Fyn kinase in vitro
in vitro phosphorylation of an overlapping peptide array (Phosphosite Detector) [3]: This analysis identified five tyrosines (Y60, Y156, Y166, Y261, and Y365) as potential LKB1 phosphorylation acceptor sites for the Fyn kinase
